In publication PMC3557450:

Molecular target: soluble recombinant pMHC II I-E^d/λ2^315 (not stated | mouse)
Test: SPR

Kd [µM]	Substance
7	soluble scTCR Vαβ 4B2A1 mutant PRS (L115P^linker/K199R^Vβ/L214S^Vβ)
5.8	soluble scTCR Vαβ 4B2A1 mutant PS (L115P^linker/L214S^Vβ)
